In publication PMC12635110:

Target: MCPH1-BRCT-eCR (tandem BRCT 2-3 of MCPH1) tandem BRCT domain (BRCT2-3)
Test: FRAP of eGFP in live cells
Conditions: reference: DMSO, outside spontaneous damage foci; sites S139

In the case of “H2AX (from UniProt P16104) ETO ~1 h, within a damage focus”, the “other: FRAP recovery half-life” value was “same; reference 1.07 ± 0.76”.
